{"source": "paper PMC7267773", "about": "“CCDC61/VFL3 Is a Paralog of SAS6 and Promotes Ciliary Functions” (Structure(London, England:1993), 2020)", "proteins": {"B1": {"name": "N-terminal head domain of human CCDC61 (hCCDC61^1-143) (domain or fragment)", "chain": "GSMDQPAGLQVDYVFRGVEHAVRVMVSGQVLELEVEDRMTADQWRGEFDAGFIEDLTHKTGNFKQFNIFCHMLESALTQSSESVTLDLLTYTDLESLRNRKMGGRPGSLAPRSAQLNSKRYLILIYSVEFDRIHYPLPLPYQGKP", "notes": "extra residues Gly-Ser left at the N-terminus after the His-GST tag was cleaved with tev protease; gene codon optimized for E. coli and synthesized; The crystal (PDB 6HXT) was of the seleno-methionine-substituted protein; also called hCCDC61 head domain; source: E. coli BL21(DE3), purified (GSTrap, tev cleavage, HisTrap flow through, HiTrap Q, PD-10); not shown: His tag, N-terminal, cleaved; GST, …"}, "B2": {"name": "His6-lipoyl-zCCDC61^1-170 (domain or fragment, zebrafish (Danio rerio), UniProt Q08CF3 1-170, looked up)", "chain": "MEVGTVVQEEMKFRGSEFAVKVEMAERLLIVEISDVVTADQWRGEFGPAYIEDLTRKTGNFKQFPVFCSMLESAVHKSSDSVTLDLLTYSDLELLRNRKAGVVGRPRAQPQSPALSAKRYLILIYTVEFDRIHYPLPLPYLGKPDPAELQKEIRALRSELKTLGLRGDHK", "notes": "zebrafish (Danio rerio) CCDC61, residues 1-170; The His6-lipoyl domain tag was retained for SEC-MALS to stabilize the protein at high concentrations; also called Lipo-zCCDC61^1-170; wild-type; source: E. coli C41 in 2xTY, purified (Ni-NTA, SEC, HiTrap Q-FF); not shown: His6, N-terminal, kept; lipoyl domain (Bacillus stearothermophilus dihydrolipoamide acetyltransferase), N-terminal, kept"}, "B3": {"name": "His6-lipoyl-zCCDC61^(1-170; F129E/D130A) (domain or fragment, zebrafish (Danio rerio), UniProt Q08CF3 1-170, looked up)", "chain": "B2 chain with F129E, D130A", "notes": "zebrafish (Danio rerio) CCDC61, residues 1-170, with F129E and D130A; also called Lipo-zCCDC61^(1-170); head-to-head dimerization-deficient mutant; source: E. coli C41 in 2xTY, purified (Ni-NTA, SEC, HiTrap Q-FF); not shown: His6, N-terminal, kept; lipoyl domain (Bacillus stearothermophilus dihydrolipoamide acetyltransferase), N-terminal, kept"}, "B4": {"name": "zebrafish CCDC61 (residues 1–170; zCCDC61^1-170), lipoyl-domain tag removed (domain or fragment, zebrafish (Danio rerio))", "chain": "GGSMEVGTVVQEEMKFRGSEFAVKVEMAERLLIVEISDVVTADQWRGEFGPAYIEDLTRKTGNFKQFPVFCSMLESAVHKSSDSVTLDLLTYSDLELLRNRKAGVVGRPRAQPQSPALSAKRYLILIYTVEFDRIHYPLPLPYLGKPDPAELQKEIRALRSELKTLGLRGDHK", "notes": "extra residues Gly-Gly-Ser left at the N-terminus after the tag was cleaved with tev protease; zebrafish (Danio rerio) CCDC61, residues 1-170, head and part of the coiled-coil domain; Homo-tetramer in the crystal; source: E. coli C41, purified (Ni-NTA, tev cleavage, HisTrap FF, HiTrap Q HP flow through, PD-10); not shown: His tag, N-terminal, cleaved; lipoyl domain (Bacillus stearothermophilus …)"}}, "key": {"[1]": {"biological_target": "the molecule itself", "assay": "AUC; sedimentation equilibrium, 12, 4 and 1.3 mg/ml, 11,600, 19,700 and 34,000 rpm, 4°C; dimer to monomers"}, "[2]": {"biological_target": "the molecule itself", "assay": "AUC; velocity sedimentation, approximately 480 μM (7.9 mg/ml), 20 mM Tris-HCl pH 8.0, 150 mM NaCl, 2 mM DTT, 50,000 rpm, 4°C; c(s) distribution"}, "[3]": {"biological_target": "the molecule itself", "assay": "SEC-MALS; Superdex S200 10/300, 10mM Tris-HCl pH 7.4, 150mM NaCl, room temperature; loaded at 1, 6.5 and 65 mg/ml (wild type) and 1, 6.8 and 73 mg/ml (F129E/D130A)"}, "[4]": {"biological_target": "the molecule itself", "assay": "crystal structure; zCCDC61^1-170, 4.62 mg/ml, 100 mM Citric acid pH 5.0, 1 M LiCl, sitting drop, 20°C"}}, "note": "Changes are numbered by the printed parent chain. Numbers in names are those of the source."}
{"protein": "B1", "values": [{"measurement": "Kd", "setting": "[1]", "result": "170 ± 18", "unit": "µM"}, {"measurement": "stoichiometry N", "setting": "[2]", "result": 2}]}
{"protein": "B2", "values": [{"measurement": "binding result", "setting": "[3]", "result": "binds"}]}
{"protein": "B3", "values": [{"measurement": "binding result", "setting": "[3]", "result": "binds"}]}
{"protein": "B4", "values": [{"measurement": "stoichiometry N", "setting": "[4]", "result": 4}]}
